Results as given in publication PMC10881517.

What was measured:
[1] = target: Pcdh15 EC1-11 PICA (cis-dimer); assay: AFM force-clamp spectroscopy (single molecule); Cdh23 EC1-27-Fc dimer covalently on the cantilever, Pcdh15 EC1-11 PICA dimer covalently on the coverslip (sortagging); cantilever retracted 70 nm before clamping, clamping time 20 s; 25 mM HEPES, 100 mM NaCl, 50 mM KCl, 50 µM CaCl2; lifetimes from exponential fits of survival probability, Bell model fits
Cdh23 EC1-10 = assay: AFM force-clamp spectroscopy (single molecule); Pcdh15 EC1-2 covalently on the cantilever, Cdh23 variants (EC1-5, EC1-10, EC1-21, EC1-27) covalently on the coverslip (sortagging, Mal-PEG2-NHS); contact 1-2 s, clamp 10 s; 25 mM HEPES, 100 mM NaCl, 50 mM KCl, 50 µM CaCl2; modified sliding-rebinding model fit with unfolding probabilities
Cdh23 EC1-21 = assay: as above
Cdh23 EC1-5 = assay: as above
[2] = target: full-length Cdh23 EC1-27 (27 domains); assay: as above
[3] = target: Mouse Cdh23 EC1-2 (mouse) (UniProt Q99PF4); assay: AFM force-clamp spectroscopy (single molecule); Pcdh15 EC1-2 (WT or R113G) covalently on the cantilever, Cdh23 EC1-2 covalently on the coverslip (sortagging, Mal-PEG5000-NHS); contact 1-2 s, clamp 10 s; 25 mM HEPES, 100 mM NaCl, 50 mM KCl, 50 µM CaCl2; modified sliding-rebinding model fit of lifetime against force
Sequence of Mouse Cdh23 EC1-2 (mouse) (Q99PF4 24-228): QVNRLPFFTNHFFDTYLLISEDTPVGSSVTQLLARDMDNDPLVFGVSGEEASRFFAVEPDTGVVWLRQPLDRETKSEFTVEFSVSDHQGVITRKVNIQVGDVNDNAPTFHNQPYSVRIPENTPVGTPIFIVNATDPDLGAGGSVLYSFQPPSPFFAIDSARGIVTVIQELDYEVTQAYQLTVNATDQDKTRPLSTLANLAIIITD

Cdh23 EC1-27 with the Fc region on its C-terminus (cis-dimer) (Fc fusion)
intrinsic lifetime (τ0), low-force slip regime extrapolated to zero force [1]: 31.8 s | lifetime in the ideal-bond region (τ0) [1]: 6.3 s | lifetime of the short-lived component of the bi-exponential decay at high forces (>70 pN) [1]: 1 s | τ0 of the Bell fit of the second slip region [1]: 8.4 s

Mouse Pcdh15 EC1-2 (from UniProt Q99PJ1 27-259) (domain or fragment)
k+1 (intrinsic rate of reorganization, sliding-rebinding model) (Cdh23 EC1-10): 0.9 s⁻¹ | k+2 (intrinsic rate of rebinding, sliding-rebinding model) (Cdh23 EC1-10): 7.8 s⁻¹ | k-1 (intrinsic off-rate at zero force, single bond of the sliding-rebinding model) (Cdh23 EC1-10): 0.39 s⁻¹ | k+1 (intrinsic rate of reorganization, sliding-rebinding model) (Cdh23 EC1-21): 1.2 s⁻¹ | k+2 (intrinsic rate of rebinding, sliding-rebinding model) (Cdh23 EC1-21): 0.8 s⁻¹ | k-1 (intrinsic off-rate at zero force, single bond of the sliding-rebinding model) (Cdh23 EC1-21): 0.35 s⁻¹ | k+1 (intrinsic rate of reorganization, sliding-rebinding model) (Cdh23 EC1-5): 0.9 s⁻¹ | k+2 (intrinsic rate of rebinding, sliding-rebinding model) (Cdh23 EC1-5): 29.4 s⁻¹ | k-1 (intrinsic off-rate at zero force, single bond of the sliding-rebinding model) (Cdh23 EC1-5): 0.61 s⁻¹ | zero-force lifetime (Cdh23 EC1-5): 1.6 s | k+1 (intrinsic rate of reorganization, sliding-rebinding model) [2]: 0.5 s⁻¹ | k+2 (intrinsic rate of rebinding, sliding-rebinding model) [2]: 0.5 s⁻¹ | k-1 (intrinsic off-rate at zero force, single bond of the sliding-rebinding model) [2]: 0.29 s⁻¹ | zero-force lifetime [2]: 3.4 s

Pcdh15 EC1-2 (R113G), Q99PJ1 27-259 (domain or fragment; other documents disagree on this pair)
k+1 (intrinsic rate of reorganization, sliding-rebinding model) [3]: 0.6 s⁻¹ | k-1 (intrinsic off-rate at zero force, single bond of the sliding-rebinding model) [3]: 0.3 s⁻¹
